# Source: patent US20200377595A1 (Chugai, published 2020)
# Several values for one entry are separate records, joined by “and”; a condition that tells them apart may be missing. Equal entries are not always repeated.
# T1: biotin-labeled cynomolgus monkey CD137 fused to human IgG1 Fc fragment (cynomolgus monkey; human, UniProt Q07011 24-186, limits assumed, biotin-labeled)
# T1 construct: also called cyno CD137-Fc; not shown: human IgG1 Fc fragment
# T1 chain: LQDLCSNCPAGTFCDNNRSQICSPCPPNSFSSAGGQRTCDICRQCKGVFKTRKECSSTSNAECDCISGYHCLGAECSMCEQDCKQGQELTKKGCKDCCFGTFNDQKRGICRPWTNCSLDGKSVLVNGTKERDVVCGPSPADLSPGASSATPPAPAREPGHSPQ
# Target: biotinylated CD3 epsilon epitope peptide
# Experiment: SPR, method of Ref. Ex. 3, one-arm Ab
row,Binder,Kd
1,"CE115HA000 V11L/D72A/L78I/D101Q with GGS inserted between Kabat 99 and 100, one-arm antibody (antibody) chain 1: QVQLVESGGGLVQPGRSLRLSCAASGFTFSNAWMHWVRQAPGKGLEWVAQIKAKSNNYATYYAESVKGRFTISRADSKNSIYLQMNSLKTEDTAVYYCRYVHYGAGGSYYGVQAWGQGTTVTVSSASTKGPSVFPLAPSSKSTSGGTAALGCLVKDYFPEPVTVSWNSGALTSGVHTFPAVLQSSGLYSLSSVVTVPSSSLGTQTYICNVNHKPSNTKVDKKVEPKSCDKTHTCPPCPAPEAAGGPSVFLFPPKPKDTLMISRTPEVTCVVVDVSHEDPEVKFNWYVDGVEVHNAKTKPREEQYASTYRVVSVLTVLHQDWLNGKEYKCKVSNKALPAPIEKTISKAKGQPREPQVYTLPPSRCELTKNQVSLSCAVKGFYPSDIAVEWESNGQPENNYKTTPPVLDSDGSFFLVSKLTVDKSRWQQGNVFSCSVMHEALHNHYTQKSLSLSPDYKDDDDK chain 2: EPKSSDKTHTCPPCPAPELLGGPSVFLFPPKPKDTLMISRTPEVTCVVVDVSHEDPEVKFNWYVDGVEVHNAKTKPREEQYNSTYRVVSVLTVLHQDWLNGKEYKCKVSNKALPAPIEKTISKAKGQPREPQVCTLPPSRDELTKNQVSLWCLVKGFYPSDIAVEWESNGQPENNYKTTPPVLDSDGSFFLYSKLTVDKSRWQQGNVFSCSVMHEALHNRYTQKSLSLSP chain 3: DIVMTQSPLSLPVTPGEPASISCRSSQSLVHSNRNTYLHWYQQKPGQAPRLLIYKVSNRFSGVPDRFSGSGSGTDFTLKISRVEAEDVGVYYCGQGTQVPYTFGQGTKLEIKRTVAAPSVFIFPPSDEQLKSGTASVVCLLNNFYPREAKVQWKVDNALQSGNSQESVTEQDSKDSTYSLSSTLTLSKADYEKHKVYACEVTHQGLSSPVTKSFNRGEC",63.1 nM
2,"CE115HA000 V11L/D72A/L78I/D101Q with GGSGGS inserted between Kabat 99 and 100, one-arm antibody (antibody) chain 1: QVQLVESGGGLVQPGRSLRLSCAASGFTFSNAWMHWVRQAPGKGLEWVAQIKAKSNNYATYYAESVKGRFTISRADSKNSIYLQMNSLKTEDTAVYYCRYVHYGAGGSGGSYYGVQAWGQGTTVTVSSASTKGPSVFPLAPSSKSTSGGTAALGCLVKDYFPEPVTVSWNSGALTSGVHTFPAVLQSSGLYSLSSVVTVPSSSLGTQTYICNVNHKPSNTKVDKKVEPKSCDKTHTCPPCPAPEAAGGPSVFLFPPKPKDTLMISRTPEVTCVVVDVSHEDPEVKFNWYVDGVEVHNAKTKPREEQYASTYRVVSVLTVLHQDWLNGKEYKCKVSNKALPAPIEKTISKAKGQPREPQVYTLPPSRCELTKNQVSLSCAVKGFYPSDIAVEWESNGQPENNYKTTPPVLDSDGSFFLVSKLTVDKSRWQQGNVFSCSVMHEALHNHYTQKSLSLSPDYKDDDDK chain 2: EPKSSDKTHTCPPCPAPELLGGPSVFLFPPKPKDTLMISRTPEVTCVVVDVSHEDPEVKFNWYVDGVEVHNAKTKPREEQYNSTYRVVSVLTVLHQDWLNGKEYKCKVSNKALPAPIEKTISKAKGQPREPQVCTLPPSRDELTKNQVSLWCLVKGFYPSDIAVEWESNGQPENNYKTTPPVLDSDGSFFLYSKLTVDKSRWQQGNVFSCSVMHEALHNRYTQKSLSLSP chain 3: DIVMTQSPLSLPVTPGEPASISCRSSQSLVHSNRNTYLHWYQQKPGQAPRLLIYKVSNRFSGVPDRFSGSGSGTDFTLKISRVEAEDVGVYYCGQGTQVPYTFGQGTKLEIKRTVAAPSVFIFPPSDEQLKSGTASVVCLLNNFYPREAKVQWKVDNALQSGNSQESVTEQDSKDSTYSLSSTLTLSKADYEKHKVYACEVTHQGLSSPVTKSFNRGEC",34.6 nM and 31.1 nM

# Results, then the binder that gave them:
row,Kd,Binder
1,43.5 nM and 34.3 nM,"CE115HA000 V11L/D72A/L78I/D101Q with GGSGGGS inserted between Kabat 99 and 100, one-arm antibody (antibody) chain 1: QVQLVESGGGLVQPGRSLRLSCAASGFTFSNAWMHWVRQAPGKGLEWVAQIKAKSNNYATYYAESVKGRFTISRADSKNSIYLQMNSLKTEDTAVYYCRYVHYGAGGSGGGSYYGVQAWGQGTTVTVSSASTKGPSVFPLAPSSKSTSGGTAALGCLVKDYFPEPVTVSWNSGALTSGVHTFPAVLQSSGLYSLSSVVTVPSSSLGTQTYICNVNHKPSNTKVDKKVEPKSCDKTHTCPPCPAPEAAGGPSVFLFPPKPKDTLMISRTPEVTCVVVDVSHEDPEVKFNWYVDGVEVHNAKTKPREEQYASTYRVVSVLTVLHQDWLNGKEYKCKVSNKALPAPIEKTISKAKGQPREPQVYTLPPSRCELTKNQVSLSCAVKGFYPSDIAVEWESNGQPENNYKTTPPVLDSDGSFFLVSKLTVDKSRWQQGNVFSCSVMHEALHNHYTQKSLSLSPDYKDDDDK chain 2: EPKSSDKTHTCPPCPAPELLGGPSVFLFPPKPKDTLMISRTPEVTCVVVDVSHEDPEVKFNWYVDGVEVHNAKTKPREEQYNSTYRVVSVLTVLHQDWLNGKEYKCKVSNKALPAPIEKTISKAKGQPREPQVCTLPPSRDELTKNQVSLWCLVKGFYPSDIAVEWESNGQPENNYKTTPPVLDSDGSFFLYSKLTVDKSRWQQGNVFSCSVMHEALHNRYTQKSLSLSP chain 3: DIVMTQSPLSLPVTPGEPASISCRSSQSLVHSNRNTYLHWYQQKPGQAPRLLIYKVSNRFSGVPDRFSGSGSGTDFTLKISRVEAEDVGVYYCGQGTQVPYTFGQGTKLEIKRTVAAPSVFIFPPSDEQLKSGTASVVCLLNNFYPREAKVQWKVDNALQSGNSQESVTEQDSKDSTYSLSSTLTLSKADYEKHKVYACEVTHQGLSSPVTKSFNRGEC"
2,41.3 nM and 37.5 nM,"CE115HA000 V11L/D72A/L78I/D101Q with GGGSGGGS inserted between Kabat 99 and 100, one-arm antibody (antibody) chain 1: QVQLVESGGGLVQPGRSLRLSCAASGFTFSNAWMHWVRQAPGKGLEWVAQIKAKSNNYATYYAESVKGRFTISRADSKNSIYLQMNSLKTEDTAVYYCRYVHYGAGGGSGGGSYYGVQAWGQGTTVTVSSASTKGPSVFPLAPSSKSTSGGTAALGCLVKDYFPEPVTVSWNSGALTSGVHTFPAVLQSSGLYSLSSVVTVPSSSLGTQTYICNVNHKPSNTKVDKKVEPKSCDKTHTCPPCPAPEAAGGPSVFLFPPKPKDTLMISRTPEVTCVVVDVSHEDPEVKFNWYVDGVEVHNAKTKPREEQYASTYRVVSVLTVLHQDWLNGKEYKCKVSNKALPAPIEKTISKAKGQPREPQVYTLPPSRCELTKNQVSLSCAVKGFYPSDIAVEWESNGQPENNYKTTPPVLDSDGSFFLVSKLTVDKSRWQQGNVFSCSVMHEALHNHYTQKSLSLSPDYKDDDDK chain 2: EPKSSDKTHTCPPCPAPELLGGPSVFLFPPKPKDTLMISRTPEVTCVVVDVSHEDPEVKFNWYVDGVEVHNAKTKPREEQYNSTYRVVSVLTVLHQDWLNGKEYKCKVSNKALPAPIEKTISKAKGQPREPQVCTLPPSRDELTKNQVSLWCLVKGFYPSDIAVEWESNGQPENNYKTTPPVLDSDGSFFLYSKLTVDKSRWQQGNVFSCSVMHEALHNRYTQKSLSLSP chain 3: DIVMTQSPLSLPVTPGEPASISCRSSQSLVHSNRNTYLHWYQQKPGQAPRLLIYKVSNRFSGVPDRFSGSGSGTDFTLKISRVEAEDVGVYYCGQGTQVPYTFGQGTKLEIKRTVAAPSVFIFPPSDEQLKSGTASVVCLLNNFYPREAKVQWKVDNALQSGNSQESVTEQDSKDSTYSLSSTLTLSKADYEKHKVYACEVTHQGLSSPVTKSFNRGEC"

# Target: T1, biotin-labeled cynomolgus monkey CD137 …
# Experiment: ELISA, IgG
row,Binder,binding result
1,"dBBDu222 (antibody, IgG1, V domains shown, IgG1) VH: QVQLVESGGGLVQPGRSLRLSCAASGFTISSAWMHWVRQAPGKGLEWVAQIKDRANGYAAYYAPSVKGRFTISRDDSKNSIYLQMNSLKTEDTAVYYCRYVHYATAYDGFYGFGVDAWGQGTTVTVSS VL: DIVMTQSPLSLPVTPGEPASISCRSSQSLVHSNRNTYLHWYQQKPGQAPRLLIYKVSNRFSGVPDRFSGSGSGTDFTLKISRVEAEDVGVYYCGQGTQVPYTFGQGTKLEIK",binds
2,"dBBDu183 (antibody, IgG1, V domains shown, IgG1) VH: QVQLVESGGGLVQPGRSLRLSCAASGFTFSNAWMHWVRQAPGKGLEWVAQIKDKGNAYAAYYAPSVKGRFTISRDDSKNSIYLQMNSLKTEDTAVYYCHYVHYASASTVLPAFGVDAWGQGTTVTVSS VL: DIVMTQSPLSLPVTPGEPASISCRSSQSLVHSNRNTYLHWYQQKPGQAPRLLIYKVSNRFSGVPDRFSGSGSGTDFTLKISRVEAEDVGVYYCGQGTQVPYTFGQGTKLEIK",binds
3,"dBBDu217 (antibody, IgG1, V domains shown, IgG1) VH: QVQLVESGGGLVQPGRSLRLSCAASGFTFSNAWMHWVRQAPGKGLEWVAQIKDRQQGYATYYAPSVKGRFTISRDDSKNSIYLQMNSLKTEDTAVYYCRFVHYHLAGYGYYGVDAWGQGTTVTVSS VL: DIVMTQSPLSLPVTPGEPASISCRSSQSLVHSNRNTYLHWYQQKPGQAPRLLIYKVSNRFSGVPDRFSGSGSGTDFTLKISRVEAEDVGVYYCGQGTQVPYTFGQGTKLEIK",binds
4,"dBBDu139 (antibody, IgG1, V domains shown, IgG1) VH: QVQLVESGGGLVQPGRSLRLSCAASGFTFSNAWMHWVRQAPGKGLEWVAQIKDRGNAYNAYYAESVKGRFTISRDDSKNSIYLQMNSLKTEDTAVYYCRFVHYRHPLLHIQYGVDAWGQGTTVTVSS VL: DIVMTQSPLSLPVTPGEPASISCRSSQSLVHSNRNTYLHWYQQKPGQAPRLLIYKVSNRFSGVPDRFSGSGSGTDFTLKISRVEAEDVGVYYCGQGTQVPYTFGQGTKLEIK",binds

# Now from value to binder:
row,binding result,Binder
1,binds,"dBBDu179 (antibody, IgG1, V domains shown, IgG1) VH: QVQLVESGGGLVQPGRSLRLSCAASGFTFSNAWMHWVRQAPGKGLEWVAQIKDRSNQYATYYAPSVKGRFTISRDDSKNSIYLQMNSLKTEDTAVYYCHYVHYASASTVLPAFGVDAWGQGTTVTVSS VL: DIVMTQSPLSLPVTPGEPASISCRSSQSLVHSNRNTYLHWYQQKPGQAPRLLIYKVSNRFSGVPDRFSGSGSGTDFTLKISRVEAEDVGVYYCGQGTQVPYTFGQGTKLEIK"
2,binds,"dBBDu174 (antibody, IgG1, V domains shown, IgG1) VH: QVQLVESGGGLVQPGRSLRLSCAASGFTFSSAWMHWVRQAPGKGLEWVAQIKDRASAYNAYYAESVKGRFTISRDDSKNSIYLQMNSLKTEDTAVYYCRYVHYPSYVSFLPYYGVDAWGQGTTVTVSS VL: DIVMTQSPLSLPVTPGEPASISCRSSQSLVHSNRNTYLHWYQQKPGQAPRLLIYKVSNRFSGVPDRFSGSGSGTDFTLKISRVEAEDVGVYYCGQGTQVPYTFGQGTKLEIK"
